{"source": "patent US20250043287", "about": "“SYNTHETIC MEMORY WITH INTERCEPTING RECOMBINASE FUNCTION” (Georgia Tech Research Corporation, published 2025)", "binders": {"B1": {"name": "A118 attP Ottg P+1 (dsDNA)", "DNA 1": "TTAGTTCCTCGTTTTCTCTCGTTAATTTTGAGCGCTCAAAAAAACTAAA", "DNA 2": "TTTAGTTTTTTTGAGCGCTCAAAATTAACGAGAGAAAACGAGGAACTAA"}, "B2": {"name": "A118 attP Oagg P+1 (dsDNA)", "DNA 1": "B1 DNA 1 with T28A, T29G, A38C, A39T", "DNA 2": "B1 DNA 2 with T11A, T12G, A21C, A22T"}, "B3": {"name": "A118 attP Ogtg (Osym) P+1 (dsDNA)", "DNA 1": "B1 DNA 1 with T28G, A39C", "DNA 2": "B1 DNA 2 with T11G, A22C"}}, "key": {"I+HQN": {"biological_target": "I+HQN (UniProt P03023 SEQ:1-360, Y17H,R22N)", "experiment": "cell_activity; day 1 dynamic range, IPTG; 57.65 day 3", "settings": "chain copies: 4"}, "E+HQN": {"biological_target": "T1, E+HQN (UniProt O87590 SEQ:1-337, Y17H,R22N)", "T1 sequence": "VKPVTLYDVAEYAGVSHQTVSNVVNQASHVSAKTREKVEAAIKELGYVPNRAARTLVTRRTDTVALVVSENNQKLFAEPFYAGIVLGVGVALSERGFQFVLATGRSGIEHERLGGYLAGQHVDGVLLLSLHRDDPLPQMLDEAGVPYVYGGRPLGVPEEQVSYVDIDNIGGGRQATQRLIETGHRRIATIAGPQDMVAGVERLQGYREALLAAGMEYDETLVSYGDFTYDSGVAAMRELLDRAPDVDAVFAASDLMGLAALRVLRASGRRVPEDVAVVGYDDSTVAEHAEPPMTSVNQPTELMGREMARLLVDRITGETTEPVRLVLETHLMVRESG", "experiment": "cell_activity; day 1 dynamic range of interception, cellobiose induced; 114.83 day 3", "settings": "chain copies: 2"}, "I+KSL": {"biological_target": "I+KSL (UniProt P03023 SEQ:1-360, Y17K,Q18S,R22L)", "experiment": "cell_activity; day 1 dynamic range; 7.42 day 3", "settings": "chain copies: 4"}, "E+KSL": {"biological_target": "T2, E+KSL (UniProt O87590 SEQ:1-337, Y17K,Q18S,R22L)", "T2 sequence": "T1 sequence with H17K, Q18S, N22L", "experiment": "cell_activity; day 1 dynamic range; 71.51 day 3", "settings": "chain copies: 2"}, "[1]": {"biological_target": "T3, E+YQR (CelR core, LacI-type DBD) (UniProt O87590 SEQ:1-337)", "T3 chain": "T1 sequence with H17Y, N22R", "experiment": "cell_activity; day 1 dynamic range; 141.52 day 3", "settings": "chain copies: 2"}, "I+YQR (LacI)": {"biological_target": "T4, I+YQR (LacI) (UniProt P03023 SEQ:1-360)", "T4 chain": "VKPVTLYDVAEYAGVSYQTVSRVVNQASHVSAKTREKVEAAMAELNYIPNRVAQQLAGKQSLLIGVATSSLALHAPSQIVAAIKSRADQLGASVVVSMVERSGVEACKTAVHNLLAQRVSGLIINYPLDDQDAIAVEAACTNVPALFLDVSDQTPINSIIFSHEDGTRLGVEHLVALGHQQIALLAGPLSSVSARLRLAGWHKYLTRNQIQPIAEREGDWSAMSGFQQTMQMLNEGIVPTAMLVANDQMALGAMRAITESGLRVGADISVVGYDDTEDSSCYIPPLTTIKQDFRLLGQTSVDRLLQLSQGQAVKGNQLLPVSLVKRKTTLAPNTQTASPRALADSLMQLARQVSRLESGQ", "experiment": "cell_activity; day 1 dynamic range; 29.77 day 3", "settings": "chain copies: 4"}}, "note": "Where a chain is given by its changes, count along the chain named."}
{"binder": "B1", "values": [{"measurement": "binding signal", "setting": "I+HQN", "value": 15.4, "unit": "fold"}, {"measurement": "binding signal", "setting": "E+HQN", "value": 20.6, "unit": "fold"}]}
{"binder": "B2", "values": [{"measurement": "binding signal", "setting": "I+KSL", "value": 5.44, "unit": "fold"}, {"measurement": "binding signal", "setting": "E+KSL", "value": 14.7, "unit": "fold"}]}
{"binder": "B3", "values": [{"measurement": "binding signal", "setting": "[1]", "value": 20.9, "unit": "fold"}, {"measurement": "dynamic range", "setting": "I+YQR (LacI)", "value": 9.26, "unit": "fold"}]}
